Data reported in article PMC12441119 (2025).

T1: STK4 (residues 1–326) K59R (human, UniProt Q13043 1-326, K59R)
T1 sequence: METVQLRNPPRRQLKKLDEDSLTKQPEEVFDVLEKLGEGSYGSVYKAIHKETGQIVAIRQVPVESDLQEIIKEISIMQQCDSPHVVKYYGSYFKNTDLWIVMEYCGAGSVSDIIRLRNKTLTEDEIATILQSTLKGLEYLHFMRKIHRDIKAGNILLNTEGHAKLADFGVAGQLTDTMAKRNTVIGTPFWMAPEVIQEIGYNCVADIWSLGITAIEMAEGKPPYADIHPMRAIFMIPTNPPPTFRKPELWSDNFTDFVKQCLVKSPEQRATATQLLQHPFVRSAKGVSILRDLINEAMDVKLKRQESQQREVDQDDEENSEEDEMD

T2: STK4 (residues 11–326) K59R (human, UniProt Q13043 11-326, K59R)
T2 sequence: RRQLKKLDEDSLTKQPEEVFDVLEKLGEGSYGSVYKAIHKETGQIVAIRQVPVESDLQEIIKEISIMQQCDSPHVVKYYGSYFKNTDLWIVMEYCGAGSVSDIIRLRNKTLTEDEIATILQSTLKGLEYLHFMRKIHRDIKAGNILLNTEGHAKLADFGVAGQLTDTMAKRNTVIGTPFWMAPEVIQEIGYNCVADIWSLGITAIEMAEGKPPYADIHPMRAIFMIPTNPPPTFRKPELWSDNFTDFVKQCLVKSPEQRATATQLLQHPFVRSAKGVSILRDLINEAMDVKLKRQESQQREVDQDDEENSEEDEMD

T3: STK4 (residues 1–326) K59R N239A (human, UniProt Q13043 1-326, K59R | N239A)
T3 sequence: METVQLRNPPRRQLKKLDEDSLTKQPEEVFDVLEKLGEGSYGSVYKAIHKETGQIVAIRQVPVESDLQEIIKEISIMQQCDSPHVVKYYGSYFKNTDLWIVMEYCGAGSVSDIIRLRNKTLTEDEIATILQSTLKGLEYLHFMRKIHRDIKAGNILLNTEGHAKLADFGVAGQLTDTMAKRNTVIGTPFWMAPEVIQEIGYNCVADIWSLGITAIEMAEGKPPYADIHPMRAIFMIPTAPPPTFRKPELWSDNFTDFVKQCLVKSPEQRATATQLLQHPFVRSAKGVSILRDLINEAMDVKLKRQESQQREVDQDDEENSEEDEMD


Columns and labels:
[1] = biological target: T1, STK4 (residues 1–326) K59R; assay: ITC
[2] = biological target: T2, STK4 (residues 11–326) K59R; assay: ITC
[3] = biological target: T3, STK4 (residues 1–326) K59R N239A; assay: ITC; printed as R239A

Row | Binder | Kd [1] | Kd [2] | Kd [3]
1 | HOIP (residues 697–1072) (domain or fragment) QECAVCGWALPHNRMQALTSCECTICPDCFRQHFTIALKEKHITDMVCPACGRPDLTDDTQLLSYFSTLDIQLRESLEPDAYALFHKKLTEGVLMRDPKFLWCAQCSFGFIYEREQLEATCPQCHQTFCVRCKRQWEEQHRGRSCEDFQNWKRMNDPEYQAQGLAMYLQENGIDCPKCKFSYALARGGCMHFHCTQCRHQFCSGCYNAFYAKNKCPEPNCRVKKSLHGHHPRDCLFYLRDWTALRLQKLLQDNNVMFNTEPPAGARAVPGGGCRVIEQKEVPNGLRDEACGKETPAGYAGLCQAHYKEYLVSLINAHSLDPATLYEVEELETATERYLHVRPQPLAGEDPPAYQARLLQKLTEEVPLGQSIPRRRK | 36.4 µM | 34.7 µM | –
2 | HOIP (residues 854–1072) (domain or fragment) EYQAQGLAMYLQENGIDCPKCKFSYALARGGCMHFHCTQCRHQFCSGCYNAFYAKNKCPEPNCRVKKSLHGHHPRDCLFYLRDWTALRLQKLLQDNNVMFNTEPPAGARAVPGGGCRVIEQKEVPNGLRDEACGKETPAGYAGLCQAHYKEYLVSLINAHSLDPATLYEVEELETATERYLHVRPQPLAGEDPPAYQARLLQKLTEEVPLGQSIPRRRK | – | – | 149 µM
